{
  "source": "patent US20260069707A1",
  "about": "“COMBINATION THERAPY WITH ANTIBODY-DRUG CONJUGATES AND HYALURONIDASES” (HALOZYME, INC., priority 2024, published 2026)",
  "key": {"[1]": {"settings": "pig, in vivo, sc", "protocol": "Porcine serum was used as surrogate matrix to prepare calibration standards and quality controls for skin sample quantitation. Untreated blank porcine skin was provided for preparation of monitoring quality controls. The porcine skin was homogenized at an approximate ratio of 0.5 mL of buffer for every 100 mg of skin.\nPorcine serum was used as surrogate matrix to prepare calibration standards and quality controls for the quantitation of skin samples. Supported liquid-liquid extraction was used for sample clean up. […] The porcine skin was homogenized at an approximate ratio of 0.5 mL of buffer for every 100 mg of skin.\nTherefore, nominal time points were used for PK analyses. To estimate the serum concentration at time zero for intravenous (IV) data, a second-order polynomial regression was applied to the early serum time points (0.25, 1, and 2 hours). The intercept of the fitted polynomial curve was used as the extrapolated concentration at time zero. Skin concentration data (μg/mL) was normalized to total protein (mg/mL) per sample, resulting in values represented as μg/mg protein.\nPharmacokinetic parameters were calculated using noncompartmental methods performed in Microsoft Excel. The area under the concentration-time curve (AUC) was determined using the linear trapezoidal rule. For serum data, AUC0-7 was calculated using all available time points. For skin data, AUC1-7 was computed based on the three available time point measurements. The maximum observed concentration (Cmax) was identified directly from the dataset, and the time at which it occurred (Tmax) was recorded. All calculations were performed using Microsoft Excel.\nThis sample was divided vertically into two identical pieces. One skin sample was placed into a pre-weighed cryogenic tube and its weight was recorded then stored on dry ice prior to transfer to ≤−70° C. The other skin sample was processed for potential future histological assessment into OCT freezing media and frozen on dry ice.\nAnimals received two SC doses on their lower abdominal region.\nTwo cohorts were included in the follow-on study. […] Each animal had two full thickness skin biopsies taken post-mortem using a 12 mm punch. This sample was divided vertically into two identical pieces. One skin sample was placed into a pre-weighed cryogenic tube and its weight was recorded, then stored on dry ice prior to transfer to ≤−70° C. The other skin sample was processed into OCT molds for potential future histological assessment.\nTissue lysates were prepared based upon the weight of the sample at a ratio of 0.2 g/mL homogenization buffer (Tables 64 and 65). The total protein concentration of each homogenate was determined by BCA assay. The concentration of the total ADC (TADC), total antibody (TAB) and free payload (SN38) in each sample was then normalized to the protein concentration and reported in μg analyte per mg total protein.\nIn this initial study, six animals were used. […] Two cohorts were included in this study. Cohort 1 was euthanized 24 hours after treatment, while Cohort 2 was euthanized 48 hours after exposure to the two test solutions."}, "[2]": {"assay": "Calculation of drug to antibody ratio (DAR)", "settings": "for ADC:free Ab / free Ab:ADC: after adjustment factor", "from_the_text": "The Drug-to-Antibody Ratio (DAR) is a critical parameter in antibody drug conjugate development, representing the average number of drug molecules attached to each antibody molecule."}, "[3]": {"assay": "Linker stability during skin tissue sample preparation (Trodelvy spiked into skin tissue)", "settings": "100 μg/mL Trodelvy spiked into skin tissue, protein precipitation, LC-MS/MS", "protocol": "Linker stability during skin tissue sample preparation was assessed by spiking 100 μg/mL Trodelvy into skin tissue, followed by protein precipitation and subsequent sample preparation for LC-MS/MS analysis. Free SN-38 was detected at approximately 10% of the total, which may be attributable to residual impurities in Trodelvy and/or linker hydrolysis occurring during the skin tissue processing steps. FIG. 62 provides the ratio of total ADC to total antibody (TADC/TAB) in skin tissue over time. Table 69 depicts the ratio of total ADC to total antibody in skin tissue homogenates, providing an indication of the extent of intact ADC that is remaining in the SC space over time."}},
  "data": [
    {"substance": "Sacituzumab govitecan [Trodelvy]", "values": [
      {"measurement": "AUC(1-7) of free payload in tissue homogenates of injection site, Mean", "setting": "[1]", "value": 0.17, "unit": "µg·days/mL"},
      {"measurement": "AUC(1-7) of total ADC (TADC) in tissue homogenates of injection site, Mean", "setting": "[1]", "value": 18.55, "unit": "µg·days/mL"},
      {"measurement": "AUC(1-7) of total antibody (TAB) in tissue homogenates of injection site, Mean", "setting": "[1]", "value": 45.30, "unit": "µg·days/mL"},
      {"measurement": "Cmax of free payload in tissue homogenates of injection site, Mean", "setting": "[1]", "value": 180, "unit": "ng/mL"},
      {"measurement": "Cmax of total ADC (TADC) in tissue homogenates of injection site, Mean", "setting": "[1]", "value": 22860, "unit": "ng/mL"},
      {"measurement": "Cmax of total antibody (TAB) in tissue homogenates of injection site, Mean", "setting": "[1]", "value": 29410, "unit": "ng/mL"},
      {"measurement": "TADC/Free Payload, mean AUC(1-7)", "setting": "[1]", "value": 10704, "unit": "%"},
      {"measurement": "TADC/Free Payload, mean Cmax", "setting": "[1]", "value": 12800, "unit": "%"},
      {"measurement": "TADC/TAB, mean AUC(1-7)", "setting": "[1]", "value": 41, "unit": "%"},
      {"measurement": "TADC/TAB, mean Cmax", "setting": "[1]", "value": 78, "unit": "%"},
      {"measurement": "Total ADC Result", "setting": "[1]", "value": "<0.100", "unit": "µg/mL"},
      {"measurement": "% DAR remaining (which may be ~ADC/ total Ab)", "setting": "[2]; Day 1", "value": 76.2, "unit": "%"},
      {"measurement": "% DAR remaining after adjustment factor to allow for variability (line without head)", "setting": "[2]; Day 1", "value": 68.6, "unit": "%"},
      {"measurement": "ADC:free Ab", "setting": "[2]; Day 1", "value": 218.2, "unit": "%"},
      {"measurement": "free Ab:ADC", "setting": "[2]; Day 1", "value": 45.8, "unit": "%"},
      {"measurement": "% DAR remaining (which may be ~ADC/ total Ab)", "setting": "[2]; Day 7", "value": 42.9, "unit": "%"},
      {"measurement": "% DAR remaining after adjustment factor to allow for variability (line without head)", "setting": "[2]; Day 7", "value": 34.3, "unit": "%"},
      {"measurement": "ADC:free Ab", "setting": "[2]; Day 7", "value": 52.2, "unit": "%"},
      {"measurement": "free Ab:ADC", "setting": "[2]; Day 7", "value": 191.7, "unit": "%"},
      {"measurement": "% DAR remaining (which may be ~ADC/ total Ab)", "setting": "[2]; Day 14", "value": 31.0, "unit": "%"},
      {"measurement": "% DAR remaining after adjustment factor to allow for variability (line without head)", "setting": "[2]; Day 14", "value": 24.8, "unit": "%"},
      {"measurement": "ADC:free Ab", "setting": "[2]; Day 14", "value": 32.9, "unit": "%"},
      {"measurement": "free Ab:ADC", "setting": "[2]; Day 14", "value": 303.8, "unit": "%"},
      {"measurement": "% DAR remaining (which may be ~ADC/ total Ab)", "setting": "[2]; Day 21", "value": 23.8, "unit": "%"},
      {"measurement": "% DAR remaining after adjustment factor to allow for variability (line without head)", "setting": "[2]; Day 21", "value": 19.0, "unit": "%"},
      {"measurement": "ADC:free Ab", "setting": "[2]; Day 21", "value": 23.5, "unit": "%"},
      {"measurement": "free Ab:ADC", "setting": "[2]; Day 21", "value": 425.0, "unit": "%"},
      {"measurement": "Free SN-38 detected, % of the total", "setting": "[3]", "value": "approximately 10%"}
    ]}
  ]
}
